Results as given in IntAct's records for PubMed 20562859.

B1: Gamma-aminobutyric acid receptor-associated protein (Homo sapiens), O95166 (parent)
chain: MKFVYKEEHPFEKRRSEGEKIRKKYPDRVPVIVEKAPKARIGDLDKKKYLVPSDLTVGQFYFLIRKRIHLRAEDALFFFVNNVIPPTSATMGQLYQEHHEEDFFLYIAYSDESVYGL
partner: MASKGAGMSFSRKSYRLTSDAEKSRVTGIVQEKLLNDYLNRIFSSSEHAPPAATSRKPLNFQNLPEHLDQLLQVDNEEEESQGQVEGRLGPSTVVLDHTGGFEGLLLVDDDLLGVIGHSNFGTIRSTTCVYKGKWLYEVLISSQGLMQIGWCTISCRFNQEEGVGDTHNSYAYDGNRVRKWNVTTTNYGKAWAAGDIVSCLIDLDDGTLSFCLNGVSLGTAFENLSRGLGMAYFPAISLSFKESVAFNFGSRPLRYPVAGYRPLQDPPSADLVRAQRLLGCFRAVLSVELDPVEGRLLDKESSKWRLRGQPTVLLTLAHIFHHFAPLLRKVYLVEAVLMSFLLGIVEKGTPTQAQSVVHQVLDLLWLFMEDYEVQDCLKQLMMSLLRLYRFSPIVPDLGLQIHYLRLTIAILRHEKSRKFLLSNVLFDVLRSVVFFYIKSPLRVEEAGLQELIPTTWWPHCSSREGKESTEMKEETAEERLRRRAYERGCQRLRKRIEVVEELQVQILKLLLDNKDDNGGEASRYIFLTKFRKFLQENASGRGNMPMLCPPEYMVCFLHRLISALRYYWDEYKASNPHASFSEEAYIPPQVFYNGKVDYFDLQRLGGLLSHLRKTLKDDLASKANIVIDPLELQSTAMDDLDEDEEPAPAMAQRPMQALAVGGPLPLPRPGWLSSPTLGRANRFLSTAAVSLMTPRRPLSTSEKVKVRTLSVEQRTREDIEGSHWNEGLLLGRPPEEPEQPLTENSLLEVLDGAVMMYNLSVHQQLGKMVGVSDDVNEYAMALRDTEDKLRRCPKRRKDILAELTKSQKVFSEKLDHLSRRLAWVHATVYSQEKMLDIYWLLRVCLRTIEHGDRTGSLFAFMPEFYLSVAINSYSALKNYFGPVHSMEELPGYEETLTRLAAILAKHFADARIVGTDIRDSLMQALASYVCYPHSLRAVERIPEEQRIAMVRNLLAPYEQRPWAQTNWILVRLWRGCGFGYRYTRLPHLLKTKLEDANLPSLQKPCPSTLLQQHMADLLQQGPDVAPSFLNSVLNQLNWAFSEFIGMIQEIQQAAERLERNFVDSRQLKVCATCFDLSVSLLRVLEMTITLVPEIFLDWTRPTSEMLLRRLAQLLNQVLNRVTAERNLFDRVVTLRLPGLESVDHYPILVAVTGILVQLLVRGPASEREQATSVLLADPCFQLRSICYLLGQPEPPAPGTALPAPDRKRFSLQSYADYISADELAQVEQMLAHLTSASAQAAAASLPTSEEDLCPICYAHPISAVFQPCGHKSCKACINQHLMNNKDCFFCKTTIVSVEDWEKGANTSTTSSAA
B2: Gamma-aminobutyric acid receptor-associated protein (Homo sapiens), O95166 (parent)
chain: B1 chain
B3: Gamma-aminobutyric acid receptor-associated protein (Homo sapiens), O95166 (parent)
chain: B1 chain
partner: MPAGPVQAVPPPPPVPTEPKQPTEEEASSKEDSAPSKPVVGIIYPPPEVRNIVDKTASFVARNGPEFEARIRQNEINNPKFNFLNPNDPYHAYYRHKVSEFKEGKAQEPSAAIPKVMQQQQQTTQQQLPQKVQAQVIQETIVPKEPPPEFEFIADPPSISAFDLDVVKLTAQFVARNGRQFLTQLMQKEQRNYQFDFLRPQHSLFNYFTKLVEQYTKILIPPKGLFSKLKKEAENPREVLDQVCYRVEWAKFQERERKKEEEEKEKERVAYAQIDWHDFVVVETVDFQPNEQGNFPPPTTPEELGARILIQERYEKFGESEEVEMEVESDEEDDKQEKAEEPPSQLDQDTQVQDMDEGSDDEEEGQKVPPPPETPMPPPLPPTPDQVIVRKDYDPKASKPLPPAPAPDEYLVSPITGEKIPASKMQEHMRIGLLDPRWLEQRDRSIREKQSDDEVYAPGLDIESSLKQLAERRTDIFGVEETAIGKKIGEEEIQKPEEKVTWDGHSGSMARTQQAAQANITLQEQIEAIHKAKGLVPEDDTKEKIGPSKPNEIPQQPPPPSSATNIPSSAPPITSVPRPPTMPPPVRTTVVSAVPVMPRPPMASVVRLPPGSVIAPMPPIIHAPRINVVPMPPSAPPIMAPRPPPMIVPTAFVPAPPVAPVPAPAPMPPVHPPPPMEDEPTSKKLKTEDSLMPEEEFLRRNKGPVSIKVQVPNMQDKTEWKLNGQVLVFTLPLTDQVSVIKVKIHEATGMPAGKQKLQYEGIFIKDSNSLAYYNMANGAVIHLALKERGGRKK

Variants of: B1
Conditions: with rn123_human RNF123, Q5XPI4

Which “effect of a mutation on the interaction” value does the source give for Y49A;L50A here?
The value was “decreasing interaction”.

Variants of: B2
Conditions: with atg2a_human ATG2A

Which “effect of a mutation on the interaction” value does the source give for Y49A;L50A here?
Its value is “decreasing interaction”.

Variants of: B2
Conditions: with atg3_human ATG3, Q9NT62
atg3_human ATG3, Q9NT62, sequence (Q9NT62 whole entry): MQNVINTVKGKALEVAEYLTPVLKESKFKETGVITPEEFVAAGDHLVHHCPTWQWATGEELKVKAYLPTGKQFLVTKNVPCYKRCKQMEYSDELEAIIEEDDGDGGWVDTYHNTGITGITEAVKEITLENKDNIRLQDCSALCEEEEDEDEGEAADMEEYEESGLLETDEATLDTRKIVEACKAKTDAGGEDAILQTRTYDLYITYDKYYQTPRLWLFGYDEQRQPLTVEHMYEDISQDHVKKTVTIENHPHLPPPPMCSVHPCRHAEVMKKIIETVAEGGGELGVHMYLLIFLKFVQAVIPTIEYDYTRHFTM

Y49A;L50A was tested. Which “effect of a mutation on the interaction” value did it give?
Its value is “disrupting interaction”.

Variants of: B2
Conditions: with echa_human HADHA

How did the “effect of a mutation on the interaction” value turn out when Y49A;L50A was run?
Its value is “decreasing interaction”.

Variants of: B2
Conditions: with nedd4_human NEDD4, P46934
nedd4_human NEDD4, P46934, sequence (P46934 whole entry): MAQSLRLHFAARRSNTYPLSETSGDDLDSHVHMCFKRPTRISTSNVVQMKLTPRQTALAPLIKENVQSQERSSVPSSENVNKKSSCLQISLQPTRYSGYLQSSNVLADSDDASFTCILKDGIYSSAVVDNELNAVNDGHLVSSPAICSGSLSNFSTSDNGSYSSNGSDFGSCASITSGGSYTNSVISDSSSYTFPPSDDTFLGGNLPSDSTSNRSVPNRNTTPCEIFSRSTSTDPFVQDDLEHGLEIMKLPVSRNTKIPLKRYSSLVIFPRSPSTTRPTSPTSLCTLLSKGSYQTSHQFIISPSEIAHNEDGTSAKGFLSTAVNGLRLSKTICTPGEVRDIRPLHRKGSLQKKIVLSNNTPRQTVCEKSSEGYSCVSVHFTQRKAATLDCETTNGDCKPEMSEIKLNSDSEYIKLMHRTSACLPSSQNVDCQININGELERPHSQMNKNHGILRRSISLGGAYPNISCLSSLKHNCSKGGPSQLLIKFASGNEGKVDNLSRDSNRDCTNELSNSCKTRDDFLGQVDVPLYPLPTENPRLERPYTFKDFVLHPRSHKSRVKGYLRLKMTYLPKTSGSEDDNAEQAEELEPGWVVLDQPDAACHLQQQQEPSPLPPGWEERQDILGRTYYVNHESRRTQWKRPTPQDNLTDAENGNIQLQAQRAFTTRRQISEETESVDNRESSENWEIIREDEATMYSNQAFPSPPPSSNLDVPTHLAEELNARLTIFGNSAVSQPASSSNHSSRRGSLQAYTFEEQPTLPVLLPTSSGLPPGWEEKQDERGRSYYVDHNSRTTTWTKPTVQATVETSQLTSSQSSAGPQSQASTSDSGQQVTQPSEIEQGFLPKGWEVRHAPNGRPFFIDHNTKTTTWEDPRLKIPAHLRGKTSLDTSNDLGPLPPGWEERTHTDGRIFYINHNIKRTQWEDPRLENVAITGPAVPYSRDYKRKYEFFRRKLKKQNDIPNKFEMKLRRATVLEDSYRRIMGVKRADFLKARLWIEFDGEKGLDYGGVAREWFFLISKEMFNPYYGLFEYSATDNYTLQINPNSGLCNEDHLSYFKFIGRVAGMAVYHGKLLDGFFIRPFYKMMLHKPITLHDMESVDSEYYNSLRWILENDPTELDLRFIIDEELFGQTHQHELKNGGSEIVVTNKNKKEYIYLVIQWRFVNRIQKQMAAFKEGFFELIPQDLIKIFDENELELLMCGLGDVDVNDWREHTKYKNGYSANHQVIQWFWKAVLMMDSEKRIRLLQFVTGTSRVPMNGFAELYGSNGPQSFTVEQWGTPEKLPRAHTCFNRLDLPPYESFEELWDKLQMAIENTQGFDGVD

How did the “effect of a mutation on the interaction” value turn out when Y49A;L50A was run?
The value was “disrupting interaction”.

Variants of: B3
Conditions: with sf3a1_human SF3A1, Q15459

How did the “effect of a mutation on the interaction” value turn out when Y49A;L50A was run?
The value was “decreasing interaction”.
